Source: the supplement of paper PMC10126150
± gives the standard deviation of the averaged measurements.

Tested on: ATP
Assay: switch fluorescence ratio, 500 uM ATP over buffer (Cy3 cluster intensity, sum of 5 cycles each) (fold (ratio)); higher = stronger signal-on switching upon ATP binding; sequences stand for … in TCGTCGGCAGCGTCAGATGTGTATAAGAGACAGTTTTTTTTTTTTTTTTTTTTTTTTT…TC
Settings: aptamer strand: ATP DNA aptamer (quencher-CACCTGGGGGAGTATTGCGGAGGAAGG + anchor), 100 nM annealed; ATP concentration: 500 uM
Method in brief: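 Values give the fluorescence ratio for each switch-domain sequence, averaged from per-cluster ratios of summed target-cycle to summed buffer-cycle Cy3 intensity. The Cy3-labelled switching-strand clusters sat on a modified Illumina MiSeq flow-cell, were annealed to 100 nM quencher-labelled ATP aptamer, and were imaged in selection buffer, then after 15 min with 500 uM ATP at 22 °C. Five cycles ran with NaOH stripping and re-annealing between them, and clusters outside 100-1000 RFU were excluded.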
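Note: ATP exposure 15 min at 22 °C before imaging.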

| Sequence | switch fluorescence ratio |
| --- | --- |
| CTAGGGGGTT | 1 ± 0.034 |
| CGCGGGCACT | 1.04 ± 0.04 |
| TCGCGGAATT | 1.01 ± 0.066 |
| AACTTTTCTA | 0.976 ± 0.017 |
| CGGTTTCTGT | 0.9814 ± 0.0092 |
| TACTGTGGGG | 1.009 ± 0.0094 |
| AGTTGAGCAA | 1.29 ± 0.048 |
| GGCCCTACAG | 1.01 ± 0.036 |
| TATTTTCTGT | 0.997 ± 0.036 |
| GTAAAGGGGG | 0.998 ± 0.023 |
| TCTTAGTGGG | 1.01 ± 0.017 |
| GGTGGTTTTG | 0.985 ± 0.037 |
| TTATTGTTTT | 1.02 ± 0.065 |
| TCAGACGTTT | 1.011 ± 0.009 |
| GCTAACACTT | 1.02 ± 0.013 |
| CCAAATCAGA | 0.986 ± 0.021 |
| TTTTTTGAT | 1.01 ± 0.032 |
| AGTGGTGGTG | 0.9902 ± 0.0039 |
| AAGAGGATG | 0.977 ± 0.023 |
| CGTATGAATA | 0.984 ± 0.011 |
| AGACGCAGTG | 0.9834 ± 0.0038 |
| TACAGACTGT | 1.04 ± 0.021 |
| AAGGTGGGGT | 1.03 ± 0.026 |
| GGACTCCCGG | 0.99 ± 0.011 |
| ATATTGGGGC | 0.993 ± 0.017 |

| Sequence | switch fluorescence ratio |
| --- | --- |
| CGTAGGAAGA | 1.02 ± 0.048 |
| GAGGGGAATT | 0.983 ± 0.014 |
| GGGGCGTAGT | 0.9995 ± 0.0075 |
| AATTTAGCCA | 1.02 ± 0.018 |
| GGATATTGCT | 0.949 ± 0.043 |
| CGTTCTTGTC | 1.05 ± 0.047 |
| CCTGGGGATA | 1.04 ± 0.024 |
| AGCGATGTCG | 0.9885 ± 0.0014 |
| AGTCGAGGGG | 1.01 ± 0.02 |
| TGGCGGTGGC | 0.9806 ± 0.006 |
| ACAAGTGTTC | 1 ± 0.051 |
| AATGAACGTT | 1.03 ± 0.078 |
| GCCTGGAGTA | 1.03 ± 0.065 |
| GAGAGCCGTT | 1 ± 0.017 |
| TCTCGGCGGA | 1.02 ± 0.028 |
| AACGGGCTGG | 0.996 ± 0.04 |
| GGGCGCGAAC | 1.06 ± 0.018 |
| AACTTGGACC | 1.05 ± 0.035 |
| TTATGGTGGG | 0.981 ± 0.015 |
| TGTGGTTAGG | 0.993 ± 0.035 |
| ATATTGTTTT | 1.02 ± 0.019 |
| CTATTAAGGT | 0.98 ± 0.021 |
| GACTTAGTGC | 1.05 ± 0.012 |
| CATTTAGTAT | 1.01 ± 0.013 |
| TTTTCCTTGT | 1.08 ± 0.13 |

| Sequence | switch fluorescence ratio |
| --- | --- |
| TGGGAAAAGA | 0.983 ± 0.017 |
| TAAAGAGTAG | 1 ± 0.042 |
| AATTTAGGAA | 0.975 ± 0.037 |
| ATTTACACGC | 1.02 ± 0.02 |
| TAGTTTGAAT | 1.01 ± 0.024 |
| TAAGGTCCGA | 1.021 ± 0.0077 |
| TGGGGCTTCA | 1.01 ± 0.028 |
| AAACTTTAGT | 0.987 ± 0.018 |
| GTATAGGGAC | 1.03 ± 0.03 |
| TATTACGAAA | 1.1 ± 0.032 |
| GAGATCGGTG | 0.96 ± 0.023 |
| TGTCGTAGGA | 1.006 ± 0.0035 |
| CTGGGTAGAC | 1.08 ± 0.011 |
| AGGTTAGAAG | 1.006 ± 0.0014 |
| CGGGCGGCAG | 1.04 ± 0.027 |
| CTGCGGGTTA | 1.01 ± 0.015 |
| GGGGTACTTT | 0.991 ± 0.026 |
| TTTAGAGGCT | 1 ± 0.012 |
| ATACAGGGCT | 1.01 ± 0.029 |
| ACCGATACCC | 1.31 ± 0.022 |
| ACATGTCTGA | 0.9991 ± 0.0024 |
| AGTTTTTGGG | 0.97 ± 0.037 |
| TGGTTTCTTT | 1.006 ± 0.0059 |
| ATAATCATTT | 1.02 ± 0.021 |
| TATTTCAGTC | 1.01 ± 0.02 |

| Sequence | switch fluorescence ratio |
| --- | --- |
| TGATCATATG | 0.982 ± 0.068 |
| ATCGACGTTT | 1.03 ± 0.055 |
| ACAACGAAAG | 1.039 ± 0.0061 |
| ACGAAAAAAG | 1.02 ± 0.012 |
| CGAAGCAGGA | 2.4 ± 0.097 |
| GTGAGCGGGG | 0.974 ± 0.037 |
| TGGATTATAG | 1.02 ± 0.033 |
| GTGAGCCGGG | 1.01 ± 0.014 |
| TCGGTATGAG | 0.9698 ± 0.0027 |
| TTCGGGGAAA | 1.02 ± 0.043 |
| ACTGATTTAT | 1.01 ± 0.028 |
| AGGTTCTCGG | 0.967 ± 0.026 |
| GCATAAGGGT | 1.01 ± 0.038 |
| AGTAGGAGCT | 0.962 ± 0.026 |
| GTCAGGGGGG | 1.02 ± 0.081 |
| AAAGAGAGAA | 0.9998 ± 0.0093 |
| GGGTGATTGG | 0.993 ± 0.018 |
| GCGTAATGGG | 0.975 ± 0.02 |
| ATGTCCCAAG | 0.99 ± 0.042 |
| CGTGTTCGGA | 0.977 ± 0.016 |
| CGGCTCAACT | 1.01 ± 0.022 |
| GTGCAAATTG | 0.997 ± 0.024 |
| ATGGATTGCA | 0.994 ± 0.023 |
| CCGGGTTAGT | 1.06 ± 0.017 |
| TTGGCCACGC | 1.018 ± 0.0056 |
